Key:
Settings in all cases: pH 5, MSOT3 without nitrate salts, 1 h uptake, transport
[1] = substrate: O=S(=O)(O)O/N=C(/Cc1ccc(O)cc1)S[C@@H]1O[C@H](CO)[C@@H](O)[C@H](O)[C@H]1O; assay: cells, lysate or membranes
[2] = substrate: C=CC/C(=N/OS(=O)(=O)O)S[C@@H]1O[C@H](CO)[C@@H](O)[C@H](O)[C@H]1O; assay: uptake into CCL-1 cotton suspension cells, HPLC of desulfoglucosinolates, Michaelis-Menten fit; assay type: cell-based, Arabidopsis thaliana
[3] = substrate: C=CCC/C(=N\OS(=O)(=O)O)S[C@@H]1O[C@H](CO)[C@@H](O)[C@H](O)[C@H]1O; assay: as above; assay type: cell-based, Arabidopsis thaliana

Row | Protein | Km [1] | Vmax [1] | Km [2] | Vmax [2] | Km [3] | Vmax [3]
1 | AtGTR2 (Arabidopsis thaliana) (protein, full-length CDS from Col-0 leaf cDNA, untagged, pEarleyGate100 (CaMV35S), stably expressed in cotton CCL-1 cells; C-terminal YFP fusion only for localization) MERKPLELESTDNHQNPSSAVYGGSVTAVDSVEEDVQNQKKVVYRGWKVMPFIIGNETFEKLGIIGTLSNLLVYLTAVFNLKSITAATIINAFSGTINFGTFVAAFLCDTYFGRYKTLSVAVIACFLGSFVILLTAAVPQLHPAACGTAADSICNGPSGGQIAFLLMGLGFLVVGAGGIRPCNLAFGADQFNPKSESGKRGIDSFFNWYFFTFTFAQILSLTLVVYVQSNVSWTIGLTIPAVLMFLACLIFFAGDKLYVKIKASGSPLAGIAQVIAVAIKKRGLKPAKQPWLNLYNYYPPKYANSKLKYTDQFRFLDKAAILTPEDKLQPDGKPADPWKLCTMQQVEEVKCIVRVLPIWFASSIYYLTITQQMTYPVFQALQSDRRLGSGGFVIPAATYVVFLMTGMTVFIVVYDRVLVPTMRRITGLDTGITLLQRIGTGIFFATASLVVAGFVEERRRTFALTKPTLGMAPRKGEISSMSAMWLIPQLSLAGVAEAFAAIGQMEFYYKQFPENMRSFAGSIFYVGGGVSSYLGSFLIATVHRTTQNSSGGNWLAEDLNKGRLDLFYFMIAGILAVNFAYFLVMSRWYRYKGSDDEVTTYETNENIIKQQDKNVA | 166.7 ± 40 µM | 1.2e-06 µmol/min/mg | 436.7 ± 154 µM | 4.6e-06 µmol/min/mg | 153.3 ± 59 µM | 2.9e-06 µmol/min/mg
2 | AtGTR1 (Arabidopsis thaliana) (protein, full-length CDS from Col-0 leaf cDNA, untagged, pEarleyGate100 (CaMV35S), stably expressed in cotton CCL-1 cells; C-terminal YFP fusion only for localization) MKSRVILNHRDRRDKNHNNNNTNHYTQVDTMERKPLEVEPSTTTTNTDVVDSFEEEQRKIVYRGWKVMPFIIGNETFEKLGIIGTLSNLLVYLTSVFNLKSYTAATIINAFSGTINFGTFIAAFLCDTYFGRYKTLSVAVIACFLGSFVILLTAAIPSLHPVACGNKISCEGPSVGQILFLLMGLGFLVVGAGGIRPCNLAFGADQFNPKSESGKKGINSFFNWYFFTFTFAQIISLTAVVYIQSNVSWTIGLIIPVALMFLACVIFFAGDRLYVKVKASGSPLAGIARVIAAAIKKRGLKPVKQPWVNLYNHIPSNYANTTLKYTDQFRFLDKAAIMTPEEKLNSDGTASDPWKLCTLQQVEEVKCIVRVIPIWFASTIYYLAITIQMTYPVFQALQSDRRLGSGGFRIPAATYVVFLMTGMTVFIIFYDRVLVPSLRRVTGLETGISLLQRIGAGFTFAIMSLLVSGFIEERRRNFALTKPTLGMAPRTGEISSMSALWLIPQLTLAGIAEAFAAIGQMEFYYKQFPENMKSFAGSIFYVGAGVSSYLASFLISTVHRTTAHSPSGNWLAEDLNKAKLDYFYFMLTGLMVVNMAYFLLMARWYRYKGGNDEDITEIETNEEETKQQQLQDKNSV | 104.5 ± 56 µM | 5e-07 µmol/min/mg | 117.9 ± 44 µM | 5e-07 µmol/min/mg | 279.1 ± 109 µM | 3.4e-06 µmol/min/mg

Reference: article PMC7247208, “A cell suspension based uptake method to study high affinity glucosinolate transporters” (Plant Methods, 2020)
